According to patent US20180312588A1 (KITE PHARMA, published 2018):
Numbering of substitutions follows the chain as printed.

T1: human CD19 (on Raji cells, CD19+ homo sapiens Burkitt's lymphoma) (human, UniProt P15391 20-556)
T1 construct: whole, on cells; also called B-lymphocyte antigen CD19; B4
T1 sequence (looked up): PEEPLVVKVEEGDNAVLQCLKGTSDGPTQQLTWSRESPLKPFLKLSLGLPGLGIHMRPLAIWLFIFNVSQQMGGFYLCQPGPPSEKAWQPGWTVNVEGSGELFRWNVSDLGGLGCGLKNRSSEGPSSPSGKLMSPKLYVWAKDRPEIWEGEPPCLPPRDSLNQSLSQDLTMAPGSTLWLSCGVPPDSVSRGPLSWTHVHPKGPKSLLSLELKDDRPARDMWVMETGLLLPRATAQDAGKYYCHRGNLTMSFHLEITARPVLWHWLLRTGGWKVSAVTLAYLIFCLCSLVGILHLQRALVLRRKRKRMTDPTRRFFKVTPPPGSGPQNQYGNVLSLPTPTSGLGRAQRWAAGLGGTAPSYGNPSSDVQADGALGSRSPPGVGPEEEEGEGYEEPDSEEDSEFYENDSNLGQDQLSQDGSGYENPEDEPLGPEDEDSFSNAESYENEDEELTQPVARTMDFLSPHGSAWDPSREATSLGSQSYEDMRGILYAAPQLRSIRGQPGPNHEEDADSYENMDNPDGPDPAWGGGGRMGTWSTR

B1: SS-scFv (scFv)
scFv: DIQMTQSPSFLSASVGDRVTITCRASQDISKYLNWYQQKPDQAPKLLIKHTSRLHSGVPSRFSGSGSGTDFTFTISSLQPEDIATYYCQQGNTLPYTFGQGTKLEIKGSTSGSGKPGSGEGSTKGEVQLVESGGGLVQPGRSLRLSCTASGVSLPDYGVSWVRQPPGKGLEWIGVIWGSETTYYNSALKSRFTISRDNSKNTLYLQMNSLRAEDTAVYYCAKHYYYGGSYAMDYWGQGTLVTVSSHHHHHH
notes: leader left out here
B2: JS-scFv (scFv)
scFv: B1 scFv with F10S, F71Y, F73L, I83F, V162I
notes: leader left out here
B3: AS-scFv (scFv)
scFv: DIQMTQSPSTLSASVGDRVTITCRASQDISKYLNWYQQKPDQAPKLLIKHTSRLHSGVPSRFSGSGSGTDFTFTISSLQPEDIATYYCQQGNTLPYTFGQGTKLEIKGSTSGSGKPGSGEGSTKGQVQLQESGPGLVKPSGTLSLTCAVSGVSLPDYGVSWIRQPPGKGLEWIGVIWGSETTYYNSALKSRVTISRDNSKNTLYLQMNSLRAEDTAVYYCAKHYYYGGSYAMDYWGQGTLVTVSSHHHHHH
notes: leader left out here
B4: NS-scFv (scFv)
scFv: DIQMTQSPSSLSASVGDRVTITCRASQDISKYLNWYQQKPGKAVKLLIYHTSRLHSGVPSRFSGSGSGTDYTLTISSLQPEDIATYFCQQGNTLPYTFGGGTKLEIKGSTSGSGKPGSGEGSTKGQVQLQESGPGLVKPSETLSVTCTVSGVSLPDYGVSWIRQPPGKGLEWLGVIWGSETTYYNSALKSRLTISKDTSKNQVFLKMSSLTAADTAIYYCAKHYYYGGSYAMDYWGQGTLVTVSSHHHHHH
notes: leader left out here

Molecular target: T1, human CD19 (on Raji cells, CD19+ homo …)
Assay: flow cytometry titration on Raji cells, anti-His FITC; scFv at log(nM) 3
Protocol: (§1) In brief, Raji cells were cultured and harvested by centrifugation. About 3×10⁵ cells per well were washed with PBS twice and incubated in 200 μl of serial dilutions of scFvs for 30 minutes at 4° C. After washing with PBS, secondary antibody (5 μg/ml His Tag antibody [FITC]) was added to the cells and incubated for 30 minutes at 4° C. After washing with PBS, cells were analyzed for binding EC50 by using FACSCalibur™ and FlowJo software.

Row | Binder | geometric mean (FACS titration)
1 | B1 | 61.7
2 | B2 | 59.7
3 | B3 | 62.4
4 | B4 | 61.9

Molecular target: T1, human CD19 (on Raji cells, CD19+ homo …)
Assay: flow cytometry titration on Raji cells, anti-His FITC; scFv at log(nM) 2.522879
Protocol: as §1

Row | Binder | geometric mean (FACS titration)
5 | B1 | 60.4
6 | B2 | 58.9
7 | B3 | 63.9
8 | B4 | 61.6

Molecular target: T1, human CD19 (on Raji cells, CD19+ homo …)
Assay: flow cytometry titration on Raji cells, anti-His FITC; scFv at log(nM) 2.045758
Protocol: as §1

Row | Binder | geometric mean (FACS titration)
9 | B1 | 51.4
10 | B2 | 46.6
11 | B3 | 62.4
12 | B4 | 56.3

Molecular target: T1, human CD19 (on Raji cells, CD19+ homo …)
Assay: flow cytometry titration on Raji cells, anti-His FITC; scFv at log(nM) 1.091515
Protocol: as §1

Row | Binder | geometric mean (FACS titration)
13 | B1 | 14.6
14 | B2 | 13.6
15 | B3 | 14.5
16 | B4 | 15.1

Molecular target: T1, human CD19 (on Raji cells, CD19+ homo …)
Assay: flow cytometry titration on Raji cells, anti-His FITC; scFv at log(nM) 0.137273
Protocol: as §1

Row | Binder | geometric mean (FACS titration)
17 | B1 | 13.9
18 | B2 | 13.4
19 | B3 | 14.2
20 | B4 | 15.7

Molecular target: T1, human CD19 (on Raji cells, CD19+ homo …)
Assay: flow cytometry titration on Raji cells, anti-His FITC; scFv at log(nM) 3.477121
Protocol: as §1

Row | Binder | geometric mean (FACS titration)
21 | B1 | 62
22 | B2 | 60.2
23 | B3 | 62.7
24 | B4 | 60.7

Molecular target: T1, human CD19 (on Raji cells, CD19+ homo …)
Assay: flow cytometry titration on Raji cells, anti-His FITC; scFv at log(nM) 1.568636
Protocol: as §1

Row | Binder | geometric mean (FACS titration)
25 | B1 | 19.3
26 | B2 | 25.7
27 | B3 | 19.4
28 | B4 | 41.2

Molecular target: T1, human CD19 (on Raji cells, CD19+ homo …)
Assay: flow cytometry titration on Raji cells, anti-His FITC; scFv at log(nM) 0.614394
Protocol: as §1

Row | Binder | geometric mean (FACS titration)
29 | B1 | 13.9
30 | B2 | 13.3
31 | B3 | 14
32 | B4 | 15.5

Molecular target: T1, human CD19 (on Raji cells, CD19+ homo …)
Assay: flow cytometry titration on Raji cells, anti-His FITC
Protocol: as §1

Row | Binder | EC50 [µM]
33 | B1 | 0.0728
34 | B2 | 0.066
35 | B3 | 0.0531
36 | B4 | 0.034
